Measurements published in patent US20230399393A1, “METHODS TO EXTEND HEALTH-SPAN AND TREAT AGE-RELATED DISEASES” (National University of Singapore, priority 2020, published 2023).

Assays:
Assay type in all cases: in vivo, mouse
C57Bl/6J mice [1] = assay: Renal function: blood urea nitrogen (BUN) and creatinine
Protocol: C57Bl/6J mice are randomised to receive either X203 or IgG control antibody at a dose of 40 mg/kg via IP injection every 3 weeks from age 55 weeks to age 110 weeks, and renal function was evaluated by analysis of serum levels of blood urea nitrogen (BUN) and creatinine using the Urea Assay Kit (ab83362, Abcam) and Creatinine Assay Kit (ab65340, Abcam) in accordance with the manufacturer's instructions.
Levels of BUN and serum creatinine was also analysed in 12 week-old male and female C57Bl/6J mice, in order to determine baseline levels. Data were analysed by 2-way ANOVA.

C57Bl/6J mice [2] = assay: Body-composition assessment via echo MRI; conditions: baseline age 55 weeks vs 108-109 weeks, vs IgG control
Protocol: From age 55 weeks (human equivalent of ˜45 years old (i.e. middle age)) to age 110 weeks (human equivalent of ˜75 years old), mice were administered with 40 mg/kg of either X203 or isotype-matched control IgG via intra-peritoneal injection every 3 weeks.
Mice also underwent body-composition assessment via echo MRI both at baseline (age 55 weeks) and at 108-109 weeks. This enabled calculation of the change in body fat mass and lean (muscle) mass in the X203 and IgG control treatment groups. Gastrocnemius and soleus muscles were also harvested from the mice at age 110 weeks and their weights were recorded. Data were analysed by 2-way ANOVA.
End-point total body fat and lean mass measurements were performed 2 days prior to sacrifice by EchoMRI analysis using 4in1 Body Composition Analyzer for Live Small Animal.

C57Bl/6J mice [3] = assay: Serum IL-6 levels of old mice (ELISA); conditions: old (110 week-old) male and female mice; vs IgG isotype control
Protocol: FIG. 51. A neutralizing IL-11 antibody reduces the levels of IL-6 protein in the serum of old mice. Graphs showing the effects of treatment with anti-IL11 (X203) or IgG isotype control on serum IL-6 levels levels of old (110 week-old) male and female mice. Dotted lines indicate the mean serum IL-6 levels of 12 week-old control male (0.159 μg/ml) and female (0.236 μg/ml) mice. Data were analyzed by 2-way ANOVA.
IL-6 is strongly linked with ageing (Maggio et al. 2006, J Gerontol A Biol Sci Med Sci. 61(6): 575-584; Ershler and Keller 2000, Annual Review of Medicine 51: 245-70).
Male and female C57Bl/6J mice aged 46 weeks were purchased from the Jackson Laboratory. Mice were randomised on a 1:1 basis to receive either 40 mg/kg of X203 or an isotype control IgG antibody (11E10), every 3 weeks (IP), starting from 55 weeks of age. Mice were sacrificed at 110 weeks of age for blood and tissues collection. 12 weeks old male and female C57Bl/6J mice that were used as control were purchased from Invivos (Singapore).
The levels of IL6 in mouse serum were quantified using Mouse IL-6 Quantikine ELISA Kit (M6000B; R&D Systems).

C57Bl/6J mice [4] = assay: Grip strength using a grip strength meter; conditions: at 110 weeks; vs IgG control antibody
Protocol: C57Bl/6J mice are randomised to receive either X203 or IgG control antibody at a dose of 40m/kg via IP injection every 3 weeks from age 55 weeks to age 110 weeks.
At 110 weeks, mice are analysed for grip strength using a grip strength meter. Reduced grip strength is a robust marker of ageing-associated frailty in mice (see Fischer et al., Aging (2016) 8: 2370-2391, hereby incorporated by reference in its entirety).
Mice grip a wire mesh attached to the meter with both forelimbs, and are then gently pulled by the tail in a horizontal plane parallel to the base plate of the meter. Grip strength is recorded as the maximum force registered.

C57Bl/6J mice [5] = assay: Metabolic function: serum/liver triglyceride, serum cholesterol, serum hydroxybutyrate
Protocol: C57Bl/6J mice were randomised to receive either X203 or IgG control antibody at a dose of 40 mg/kg via IP injection every 3 weeks from age 55 weeks to age 110 weeks, and serum triglyceride, liver triglyceride, serum cholesterol and serum p-hydroxybutyrate levels were measured using Triglyceride Assay Kit (ab65336, Abcam), Cholesterol Assay Kit (ab65390, Abcam), and Beta-Hydroxybutyrate Colorimetric Assay Kit (700190; Cayman chemicals), in accordance with the manufacturer's instructions. Levels of serum triglyceride, liver triglyceride, serum cholesterol and serum p-hydroxybutyrate were also analysed in 12 week-old male and female C57Bl/6J mice, in order to determine baseline levels. Data were analysed by 2-way ANOVA.

[6] = treatment from age 55 to 110 weeks

B1: X203: mouse anti-mouse IL-11 IgG antagonist antibody; VH SEQ ID NO:22, VL SEQ ID NO:23 (antibody, V domains shown)
VH: EVQLQQSGPELVKPGASVKIPCKASGYTFTDYNMDWVKQSHGKSLEWIGDINPHNGGPIYNQKFTGKATLTVDKSSSTAYMELRSLTSEDTAVYYCARGELGHWYFDVWGTGTTVTVSS
VL: DIVLTQSPASLAVSLGQRATISCRASKSVSTSGYSYIHWYQQKPGQPPKLLIYLASNLDSGVPARFSGSGSGTDFTLNIHPVEEEDAATYYCQHSRDLPPTFGGGTKLEIK
C57Bl/6J mice [1]; female mice, baseline 12 week old female 0.77 mg/dl
  reduction in creatinine levels relative to IgG control: 43%
C57Bl/6J mice [1]; female mice, baseline mean BUN of 12 week old female mice 31.8 mg/dl
  reduction in BUN levels relative to IgG control: 42%
C57Bl/6J mice [1]; male mice, baseline 12 week old male 0.92 mg/dl
  reduction in creatinine levels relative to IgG control: 60%
C57Bl/6J mice [1]; male mice, baseline mean BUN of 12 week old male mice 51.3 mg/dl
  reduction in BUN levels relative to IgG control: 79%
C57Bl/6J mice [1]; vs IgG control antibody
  renal function: improved
C57Bl/6J mice [2]
  fat mass gained (change in body fat mass): significantly less
  lean mass: significantly greater
C57Bl/6J mice [3]
  levels of IL-6 protein in the serum: significantly reduces
C57Bl/6J mice [4]
  grip strength: greater
C57Bl/6J mice [5]; female mice, baseline 12 week old female 37 mg/dl
  reduction in serum triglyceride levels relative to IgG control: 47%
C57Bl/6J mice [5]; female mice, baseline 12 week old female 90 mg/dl
  reduction in serum cholesterol levels relative to IgG control: 51%
C57Bl/6J mice [5]; female mice, baseline 12 week old female 130 mg/g
  reduction in liver triglyceride levels relative to IgG control: 54%
C57Bl/6J mice [5]; male mice, baseline 12 week old male 54 mg/dl
  reduction in serum triglyceride levels relative to IgG control: 65%
C57Bl/6J mice [5]; male mice, baseline 12 week old male 149 mg/dl
  reduction in serum cholesterol levels relative to IgG control: 45%
C57Bl/6J mice [5]; male mice, baseline 12 week old male 165 mg/g
  reduction in liver triglyceride levels relative to IgG control: 71%
C57Bl/6J mice [5]; [6]
  aging-associated hypertriglyceridemia, steatosis (liver fat accumulation) and hypercholesterolemia: reduce
  levels of circulating β-hydroxybutyrate: increase
